Measured values as given in US20030166536A1.
One block for each substance: values may come before it.

Columns and labels:
Assay in all cases: cell-based or functional assay
[1] = target: human A1/A3-C1-C2 dimer of factor VIIIa (human) (UniProt P00451)
[2] = target: porcine A1/A3-C1-C2 dimer of factor VIIIa (porcine) (UniProt P12263)
[3] = target: HP8, hybrid human/porcine B-domainless factor VIII, porcine substitution 373-483 (human; porcine) (UniProt P00451)
[4] = target: human B-domainless factor VIII R489 → A (human) (UniProt P00451)
[5] = target: human B-domainless factor VIII V495 → A (human) (UniProt P00451)
[6] = target: human B-domainless factor VIII P485 → A (human) (UniProt P00451)
[7] = target: human B-domainless factor VIII P492 → A (human) (UniProt P00451)
[8] = target: human B-domainless factor VIII S488 → A (human) (UniProt P00451)
[9] = target: HP13, hybrid human/porcine B-domainless factor VIII, porcine substitution 484-488 (human; porcine) (UniProt P00451)
[10] = target: human B-domainless factor VIII Y487 → A (human) (UniProt P00451)
[11] = target: HP7, hybrid human/porcine B-domainless factor VIII, porcine substitution 445-508 (human; porcine) (UniProt P00451)
[12] = target: HP10, hybrid human/porcine B-domainless factor VIII, porcine substitution 373-403 (human; porcine) (UniProt P00451)
[13] = target: human B-domainless factor VIII I508 → A (human) (UniProt P00451)
[14] = target: HP11, hybrid human/porcine B-domainless factor VIII, porcine substitution 404-508 (human; porcine) (UniProt P00451)
[15] = target: human B-domainless factor VIII R490 → A (human) (UniProt P00451)
[16] = target: human B-domainless factor VIII F501 → A (human) (UniProt P00451)
[17] = target: B-domainless human factor VIII (human) (UniProt P00451)
[18] = target: HP9, hybrid human/porcine B-domainless factor VIII, porcine substitution 484-508 (human; porcine) (UniProt P00451)
[19] = target: HP5, hybrid human/porcine B-domainless factor VIII, porcine substitution 373-508 (human; porcine) (UniProt P00451)
[20] = target: human B-domainless factor VIII R484 → A (human) (UniProt P00451)
[21] = target: HP12, hybrid human/porcine B-domainless factor VIII, porcine substitution 489-508 (human; porcine) (UniProt P00451)
[22] = target: HP4, hybrid human/porcine B-domainless factor VIII, porcine substitution 373-540 (human; porcine) (UniProt P00451)
[23] = target: HP6, hybrid human/porcine B-domainless factor VIII, porcine substitution 373-444 (human; porcine) (UniProt P00451)

B-domainless human factor VIII (human), sequence (P00451 other isoform, or with tags, fused parts or gaps): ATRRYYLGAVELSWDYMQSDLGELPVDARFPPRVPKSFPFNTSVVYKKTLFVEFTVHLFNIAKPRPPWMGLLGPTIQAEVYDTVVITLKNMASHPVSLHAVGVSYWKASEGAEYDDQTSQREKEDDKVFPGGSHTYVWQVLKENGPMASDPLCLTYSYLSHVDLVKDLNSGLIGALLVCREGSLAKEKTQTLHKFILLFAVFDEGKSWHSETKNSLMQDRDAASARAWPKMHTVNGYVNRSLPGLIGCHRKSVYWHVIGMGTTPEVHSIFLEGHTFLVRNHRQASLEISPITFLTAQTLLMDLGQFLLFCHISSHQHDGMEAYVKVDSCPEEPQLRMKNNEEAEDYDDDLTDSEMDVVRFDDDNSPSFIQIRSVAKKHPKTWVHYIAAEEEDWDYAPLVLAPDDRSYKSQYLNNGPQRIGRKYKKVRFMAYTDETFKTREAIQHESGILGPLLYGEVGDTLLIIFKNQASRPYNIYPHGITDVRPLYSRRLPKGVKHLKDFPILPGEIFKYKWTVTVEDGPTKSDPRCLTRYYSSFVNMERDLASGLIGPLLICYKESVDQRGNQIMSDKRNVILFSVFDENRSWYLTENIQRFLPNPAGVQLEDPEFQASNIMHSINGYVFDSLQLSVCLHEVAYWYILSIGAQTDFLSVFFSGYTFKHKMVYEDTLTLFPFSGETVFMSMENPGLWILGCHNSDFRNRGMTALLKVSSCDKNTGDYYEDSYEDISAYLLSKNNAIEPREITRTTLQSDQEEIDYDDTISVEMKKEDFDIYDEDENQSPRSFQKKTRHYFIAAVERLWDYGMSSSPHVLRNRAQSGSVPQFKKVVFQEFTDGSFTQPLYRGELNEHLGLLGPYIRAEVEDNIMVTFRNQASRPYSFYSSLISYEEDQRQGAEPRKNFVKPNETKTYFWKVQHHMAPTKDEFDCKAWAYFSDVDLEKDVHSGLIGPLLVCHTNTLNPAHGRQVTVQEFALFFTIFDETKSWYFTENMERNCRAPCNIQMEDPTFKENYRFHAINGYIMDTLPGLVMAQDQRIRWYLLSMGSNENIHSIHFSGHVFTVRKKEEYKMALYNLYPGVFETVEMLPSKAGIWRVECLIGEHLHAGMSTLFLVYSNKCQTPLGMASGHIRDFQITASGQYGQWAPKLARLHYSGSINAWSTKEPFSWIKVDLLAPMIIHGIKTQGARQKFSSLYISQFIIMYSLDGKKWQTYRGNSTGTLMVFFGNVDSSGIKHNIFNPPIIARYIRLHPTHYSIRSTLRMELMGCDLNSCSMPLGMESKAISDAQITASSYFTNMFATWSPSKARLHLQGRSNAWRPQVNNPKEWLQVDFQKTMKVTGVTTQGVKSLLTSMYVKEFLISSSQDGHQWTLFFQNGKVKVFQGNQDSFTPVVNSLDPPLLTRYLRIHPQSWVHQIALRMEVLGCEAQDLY
human B-domainless factor VIII I508 → A (human), sequence (P00451 other isoform, or with tags, fused parts or gaps): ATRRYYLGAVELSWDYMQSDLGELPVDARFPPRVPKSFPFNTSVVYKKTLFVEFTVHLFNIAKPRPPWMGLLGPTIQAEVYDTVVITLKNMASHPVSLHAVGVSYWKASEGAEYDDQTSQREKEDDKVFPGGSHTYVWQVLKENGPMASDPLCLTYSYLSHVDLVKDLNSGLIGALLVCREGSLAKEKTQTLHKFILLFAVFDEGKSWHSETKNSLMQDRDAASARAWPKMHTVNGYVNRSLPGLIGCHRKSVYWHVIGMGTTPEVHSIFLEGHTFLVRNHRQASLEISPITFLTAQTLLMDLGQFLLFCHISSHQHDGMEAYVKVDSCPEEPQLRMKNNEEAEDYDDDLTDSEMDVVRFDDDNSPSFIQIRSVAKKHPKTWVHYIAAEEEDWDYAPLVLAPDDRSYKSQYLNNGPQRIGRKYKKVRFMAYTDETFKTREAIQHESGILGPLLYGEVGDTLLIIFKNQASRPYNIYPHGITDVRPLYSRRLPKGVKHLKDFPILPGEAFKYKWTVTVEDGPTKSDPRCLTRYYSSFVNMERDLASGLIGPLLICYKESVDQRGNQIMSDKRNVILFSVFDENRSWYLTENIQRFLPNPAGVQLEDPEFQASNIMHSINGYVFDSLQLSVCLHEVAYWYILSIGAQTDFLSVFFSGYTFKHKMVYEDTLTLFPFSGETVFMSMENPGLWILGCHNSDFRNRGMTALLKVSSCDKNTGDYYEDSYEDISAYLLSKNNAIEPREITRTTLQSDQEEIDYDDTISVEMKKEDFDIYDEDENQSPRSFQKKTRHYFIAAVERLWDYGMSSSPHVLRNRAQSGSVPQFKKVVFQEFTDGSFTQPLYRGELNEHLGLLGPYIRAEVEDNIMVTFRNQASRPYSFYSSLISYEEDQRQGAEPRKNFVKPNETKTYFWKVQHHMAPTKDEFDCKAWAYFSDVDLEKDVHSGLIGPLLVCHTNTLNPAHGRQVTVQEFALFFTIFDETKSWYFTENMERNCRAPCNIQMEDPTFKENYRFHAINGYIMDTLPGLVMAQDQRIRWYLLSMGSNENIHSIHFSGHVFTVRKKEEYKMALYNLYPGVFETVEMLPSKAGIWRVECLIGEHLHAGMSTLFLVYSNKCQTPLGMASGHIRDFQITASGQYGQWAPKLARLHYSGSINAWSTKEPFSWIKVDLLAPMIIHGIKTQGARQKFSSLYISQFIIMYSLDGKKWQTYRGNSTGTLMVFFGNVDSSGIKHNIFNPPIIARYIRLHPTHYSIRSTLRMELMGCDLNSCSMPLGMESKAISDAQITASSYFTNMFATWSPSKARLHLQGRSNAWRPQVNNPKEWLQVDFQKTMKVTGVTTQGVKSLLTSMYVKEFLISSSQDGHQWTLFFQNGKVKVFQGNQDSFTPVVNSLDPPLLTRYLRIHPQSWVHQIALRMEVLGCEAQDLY
human B-domainless factor VIII Y487 → A (human), sequence (P00451 other isoform, or with tags, fused parts or gaps): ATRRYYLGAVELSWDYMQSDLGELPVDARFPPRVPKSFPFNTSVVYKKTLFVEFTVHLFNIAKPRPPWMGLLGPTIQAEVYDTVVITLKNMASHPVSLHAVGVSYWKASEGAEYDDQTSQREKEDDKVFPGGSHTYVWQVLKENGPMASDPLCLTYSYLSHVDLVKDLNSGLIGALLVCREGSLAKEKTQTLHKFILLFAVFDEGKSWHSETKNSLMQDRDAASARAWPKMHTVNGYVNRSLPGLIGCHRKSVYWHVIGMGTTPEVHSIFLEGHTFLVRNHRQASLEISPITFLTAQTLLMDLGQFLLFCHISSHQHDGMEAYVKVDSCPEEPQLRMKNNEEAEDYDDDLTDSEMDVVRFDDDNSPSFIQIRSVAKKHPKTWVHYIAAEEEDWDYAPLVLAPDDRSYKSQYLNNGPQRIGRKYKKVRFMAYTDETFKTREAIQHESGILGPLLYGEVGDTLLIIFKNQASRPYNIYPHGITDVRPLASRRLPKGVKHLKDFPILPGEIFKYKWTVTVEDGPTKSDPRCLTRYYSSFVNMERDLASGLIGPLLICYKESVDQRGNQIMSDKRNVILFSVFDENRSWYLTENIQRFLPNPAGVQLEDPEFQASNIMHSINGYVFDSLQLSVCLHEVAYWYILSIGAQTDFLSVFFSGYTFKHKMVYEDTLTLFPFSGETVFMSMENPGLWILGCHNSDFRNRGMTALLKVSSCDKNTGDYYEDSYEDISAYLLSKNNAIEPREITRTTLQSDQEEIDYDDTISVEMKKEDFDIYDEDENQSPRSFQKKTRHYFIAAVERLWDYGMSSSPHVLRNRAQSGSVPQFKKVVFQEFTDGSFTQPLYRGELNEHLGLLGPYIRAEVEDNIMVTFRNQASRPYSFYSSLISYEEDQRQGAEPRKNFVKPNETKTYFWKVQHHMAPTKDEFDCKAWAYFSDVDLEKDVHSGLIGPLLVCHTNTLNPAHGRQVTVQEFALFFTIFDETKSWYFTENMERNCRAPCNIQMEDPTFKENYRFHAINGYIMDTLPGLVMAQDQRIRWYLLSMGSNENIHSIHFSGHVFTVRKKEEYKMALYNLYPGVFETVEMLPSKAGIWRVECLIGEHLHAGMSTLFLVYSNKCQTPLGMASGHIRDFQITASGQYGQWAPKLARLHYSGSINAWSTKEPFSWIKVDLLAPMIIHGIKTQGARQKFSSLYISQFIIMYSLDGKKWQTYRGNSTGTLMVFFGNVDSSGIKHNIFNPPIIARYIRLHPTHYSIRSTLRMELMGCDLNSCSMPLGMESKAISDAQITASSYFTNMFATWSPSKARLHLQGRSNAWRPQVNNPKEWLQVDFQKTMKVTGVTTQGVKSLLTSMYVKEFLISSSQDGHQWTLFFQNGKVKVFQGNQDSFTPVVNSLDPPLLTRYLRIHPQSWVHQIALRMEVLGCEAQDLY

- Specific Activity (U/mg) of reconstituted hybrid fVIIIa, two-stage clotting assay at 1 hour [1]: 140000 U/mg
- Specific Activity (U/mg) of reconstituted fVIIIa, two-stage clotting assay at 1 hour [2]: 70000 U/mg
Substance: porcine factor VIIIa A2 domain, isolated from porcine blood (from UniProt P12263 392-759)

- Inhibition mAb413 (BU/mg IgG), Bethesda assay [3]: 1250 BU/mg IgG
- % Reactivity relative to wild-type [4]: 0.015%
- MAb413 titer (BU/mg), Bethesda assay [4]: 1.6 BU/mg
- % Reactivity relative to wild-type [5]: 113%
- MAb413 titer (BU/mg), Bethesda assay [5]: 10700 BU/mg
- % Reactivity relative to wild-type [6]: 42%
- MAb413 titer (BU/mg), Bethesda assay [6]: 4000 BU/mg
- % Reactivity relative to wild-type [7]: 6.7%
- MAb413 titer (BU/mg), Bethesda assay [7]: 630 BU/mg
- % Reactivity relative to wild-type [8]: 37%
- MAb413 titer (BU/mg), Bethesda assay [8]: 3500 BU/mg
- Inhibition mAb413 (BU/mg IgG), Bethesda assay [9]: < 0.7 BU/mg IgG
- % Reactivity relative to wild-type [10]: 0.53%
- MAb413 titer (BU/mg), Bethesda assay [10]: 50 BU/mg
- Inhibition mAb413 (BU/mg IgG), Bethesda assay [11]: < 0.7 BU/mg IgG
- Inhibition mAb413 (BU/mg IgG), Bethesda assay [12]: 1170 BU/mg IgG
- % Reactivity relative to wild-type [13]: 60%
- MAb413 titer (BU/mg), Bethesda assay [13]: 5620 BU/mg
- Inhibition mAb413 (BU/mg IgG), Bethesda assay [14]: < 0.7 BU/mg IgG
- % Reactivity relative to wild-type [15]: < 0.5%
- reactivity to inhibitor relative to human factor VIII [15]: 0.2%
- % Reactivity relative to wild-type [16]: 126%
- MAb413 titer (BU/mg), Bethesda assay [16]: 11900 BU/mg
- Inhibition mAb413 (BU/mg IgG), Bethesda assay [17]: 1470 BU/mg IgG
- MAb413 titer (BU/mg), Bethesda assay [17]: 9400 BU/mg
- Inhibition mAb413 (BU/mg IgG), Bethesda assay [18]: < 0.7 BU/mg IgG
- Inhibition mAb413 (BU/mg IgG), Bethesda assay [19]: < 0.7 BU/mg IgG
- % Reactivity relative to wild-type [20]: 1.7%
- MAb413 titer (BU/mg), Bethesda assay [20]: 160 BU/mg
- Inhibition mAb413 (BU/mg IgG), Bethesda assay [21]: < 0.7 BU/mg IgG
- Inhibition mAb413 (BU/mg IgG), Bethesda assay [22]: < 0.7 BU/mg IgG
- Inhibition mAb413 (BU/mg IgG), Bethesda assay [23]: 1450 BU/mg IgG
Substance: mAb413, murine monoclonal inhibitory antibody specific for the A2 domain of factor VIII
